B1: ACI-11-Ab-9 (antibody, V domains shown)
VH: QVQLQQSDAELVKPGASVKISCKVSGYTFTDHTIHWMKQRPEQGLEWIGYIYPRDGSTKYNEKFKGKATLTADKSSSTAYMQLNSLTSEDSAVYFCARDYGYAFDYWGQGTTLTVSS
VL: QAVVTQESALTTSPGGTVILTCRSSTGAVTTSNYANWVQEKPDHLFTGLIGGTSNRAPGVPVRFSGSLIGDKAALTITGAQTEDDAMYFCALWYSTHYVFGGGTKVTVL
notes: also called FG1F9E4
B2: ACI-12-Ab-11 (antibody, V domains shown)
VH: QVQLQQSDAELVKPGASVKISCKVSGYTFTDHTIHWMKQRPEQGLEWIGYIYPRDGSTKYNEKFKGKATLTADKSSSTAYMQLNSLTSEDSAVYFCARDYGYAFDYWGQGTTLTVSS
VL: QAVVTQESALTTSPGGTVILTCRSSTGAVTTSNYANWVQEKPDHLFTGLIGGTSNRAPGVPVRFSGSLIGDKAALTITGAQTEDDAMYFCALWYSTHYVFGGGTKVTVL
notes: also called FK2A6A6

What was measured:
[1] = molecular target: pre-aggregated Aβ1-42 (Th-T disaggregation assay); assay: cell-based or functional assay
[2] = molecular target: Aβ1-42 (low-molecular weight, HFIP-treated, Th-T aggregation assay); assay: cell-based or functional assay
[3] = molecular target: Aβ1-42 library peptide 24; assay: peptide library ELISA, Ab 10 µg/ml
[4] = molecular target: Aβ1-42 library peptide 8; assay: peptide library ELISA, Ab 10 µg/ml
[5] = molecular target: Aβ1-42 library peptide 27; assay: peptide library ELISA, Ab 10 µg/ml
[6] = molecular target: Aβ1-42 library peptide 2; assay: peptide library ELISA, Ab 10 µg/ml
[7] = molecular target: Aβ1-42 library peptide 22; assay: peptide library ELISA, Ab 10 µg/ml
[8] = molecular target: Aβ1-42 library peptide 7; assay: peptide library ELISA, Ab 10 µg/ml
[9] = molecular target: Aβ1-42 library peptide 33; assay: peptide library ELISA, Ab 10 µg/ml
[10] = molecular target: Aβ1-42 library peptide 28; assay: peptide library ELISA, Ab 10 µg/ml
[11] = molecular target: Aβ1-42 library peptide 14; assay: peptide library ELISA, Ab 10 µg/ml
[12] = molecular target: Aβ1-42 library peptide 19; assay: peptide library ELISA, Ab 10 µg/ml
[13] = molecular target: Aβ1-42 library peptide 20; assay: peptide library ELISA, Ab 10 µg/ml
[14] = molecular target: Aβ1-42 library peptide 31; assay: peptide library ELISA, Ab 10 µg/ml
[15] = molecular target: Aβ1-42 library peptide 15; assay: peptide library ELISA, Ab 10 µg/ml
[16] = molecular target: Aβ1-42 library peptide 25; assay: peptide library ELISA, Ab 10 µg/ml
[17] = molecular target: Aβ1-42 library peptide 23; assay: peptide library ELISA, Ab 10 µg/ml
[18] = molecular target: Aβ1-42 library peptide 16; assay: peptide library ELISA, Ab 10 µg/ml
[19] = molecular target: Aβ1-42 library peptide 1; assay: peptide library ELISA, Ab 10 µg/ml
[20] = molecular target: Aβ1-42 library peptide 11; assay: peptide library ELISA, Ab 10 µg/ml
[21] = molecular target: Aβ1-42 library peptide 3; assay: peptide library ELISA, Ab 10 µg/ml
[22] = molecular target: Aβ1-42 library peptide 4; assay: peptide library ELISA, Ab 10 µg/ml
[23] = molecular target: Aβ1-42 library peptide 5; assay: peptide library ELISA, Ab 10 µg/ml
[24] = molecular target: Aβ1-42 library peptide 32; assay: peptide library ELISA, Ab 10 µg/ml
[25] = molecular target: Aβ1-42 library peptide 26; assay: peptide library ELISA, Ab 10 µg/ml
[26] = molecular target: Aβ1-42 library peptide 21; assay: peptide library ELISA, Ab 10 µg/ml
[27] = molecular target: Aβ1-42 library peptide 12; assay: peptide library ELISA, Ab 10 µg/ml
[28] = molecular target: Aβ1-42 library peptide 30; assay: peptide library ELISA, Ab 10 µg/ml
[29] = molecular target: Aβ1-42 library peptide 10; assay: peptide library ELISA, Ab 10 µg/ml
[30] = molecular target: Aβ1-42 library peptide 29; assay: peptide library ELISA, Ab 10 µg/ml
[31] = molecular target: Aβ1-42 library peptide 13; assay: peptide library ELISA, Ab 10 µg/ml
[32] = molecular target: Aβ1-42 library peptide 18; assay: peptide library ELISA, Ab 10 µg/ml
[33] = molecular target: Aβ1-42 library peptide 17; assay: peptide library ELISA, Ab 10 µg/ml
[34] = molecular target: Aβ1-42 library peptide 6; assay: peptide library ELISA, Ab 10 µg/ml
[35] = molecular target: Aβ1-42 library peptide 9; assay: peptide library ELISA, Ab 10 µg/ml

Sequence of Aβ1-42 (low-molecular weight, HFIP-treated, Th-T aggregation assay) (peptide, as listed by the source, form in doubt): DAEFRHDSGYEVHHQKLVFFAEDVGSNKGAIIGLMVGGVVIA
Sequence of pre-aggregated Aβ1-42 (Th-T disaggregation assay) (peptide, as listed by the source, form in doubt): as above

Binder	disaggregation of pre-aggregated Aβ1-42 (Th-T fluorescence), molar ratio 1:10 [1] [%]	disaggregation of pre-aggregated Aβ1-42 (Th-T fluorescence), molar ratio 1:100 [1] [%]	inhibition of Aβ1-42 aggregation (Th-T fluorescence), molar ratio 1:10 [2] [%]	inhibition of Aβ1-42 aggregation (Th-T fluorescence), molar ratio 1:100 [2] [%]	O.D. [3] [O.D.]	O.D. [4] [O.D.]	O.D. [5] [O.D.]	O.D. [6] [O.D.]	O.D. [7] [O.D.]	O.D. [8] [O.D.]	O.D. [9] [O.D.]	O.D. [10] [O.D.]	O.D. [11] [O.D.]	O.D. [12] [O.D.]	O.D. [13] [O.D.]	O.D. [14] [O.D.]	O.D. [15] [O.D.]	O.D. [16] [O.D.]	O.D. [17] [O.D.]	O.D. [18] [O.D.]	other results
B1	52	22	69	34	0.1	0.11	0.13	0.1	0.1	0.11	0.11	0.12	0.16	0.1	0.1	0.12	0.14	0.11	0.11	0.14	O.D. [19]: 0.1 O.D.; O.D. [20]: 0.11 O.D.; O.D. [21]: 0.12 O.D.; O.D. [22]: 0.11 O.D.; O.D. [23]: 0.11 O.D.; O.D. [24]: 0.12 O.D.; O.D. [25]: 0.12 O.D.; O.D. [26]: 0.1 O.D.; O.D. [27]: 0.24 O.D.; O.D. [28]: 0.11 O.D.; O.D. [29]: 0.13 O.D.; O.D. [30]: 0.2 O.D.; O.D. [31]: 0.17 O.D.; O.D. [32]: 0.11 O.D.; O.D. [33]: 0.13 O.D.; O.D. [34]: 0.11 O.D.; O.D. [35]: 0.11 O.D.
B2	54	18	66	30	0.1	0.1	0.12	0.1	0.1	0.1	0.11	0.11	0.12	0.1	0.1	0.11	0.1	0.11	0.1	0.14	O.D. [19]: 0.1 O.D.; O.D. [20]: 0.11 O.D.; O.D. [21]: 0.11 O.D.; O.D. [22]: 0.1 O.D.; O.D. [23]: 0.1 O.D.; O.D. [24]: 0.11 O.D.; O.D. [25]: 0.12 O.D.; O.D. [26]: 0.09 O.D.; O.D. [27]: 0.21 O.D.; O.D. [28]: 0.11 O.D.; O.D. [29]: 0.1 O.D.; O.D. [30]: 0.11 O.D.; O.D. [31]: 0.15 O.D.; O.D. [32]: 0.1 O.D.; O.D. [33]: 0.12 O.D.; O.D. [34]: 0.1 O.D.; O.D. [35]: 0.1 O.D.
